In the nanobody polyreactivity screen of Harvey et al. (2022):

Experiment: yeast display, Sf9 membrane polyspecificity reagent, FACS + sequencing; frameworks hold sequencing errors
Outline: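 After 36–48 hours of galactose induction, yeast (Saccharomyces cerevisiae BJ5465) displaying a synthetic nanobody library were stained at 4 °C for 1 hour with 10% biotinylated, detergent-solubilized Sf9 membrane reagent. Streptavidin microbeads enriched the stained cells before FACS sorting into low and high (top ~1%) gates on anti-HA and streptavidin fluorescence. Each clone's polyreactivity label reflects its gate of origin.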

Sequence: QVQLVESGGGLVQAGGSLRLSCAASGIIFYGNAMGWYRQAPGKERELVARITGSDGRTYYADSVKGRFTISRDNAKNTVYLQMNSLKPEDTAVYYCNADRVRTAVYSYVYAYGIMNYWGQGTQVTVSS
- polyreactivity (PSR sort gate): low polyreactivity

Sequence: QVQLVESGGGLVQAGGSLRLSCAASGRTFTKYAMGWYRQAPGKERELVAGITRRGGNTYYADSVKGRFTISRDNAKNTVYLQMNSLKPEDTAVYYCAATLFYTGSRFRYYYWGQGTQVTVSS
- polyreactivity (PSR sort gate): high polyreactivity

Sequence: QVQLVESGGGLVQAGGSLRLSCAASGFTFIRYAMGWYRQAPGKARELVAAIRGTGTSTYYADSVKGRFTISRDNAKNTVYLQMNSLKPEDTAVYYCNKVAGRSPYTRYDYWGQGTQVTVSS
- polyreactivity (PSR sort gate): low polyreactivity

Sequence: QVQLVESGGGLVQAGGSLRLSCAASGRTFERNAMGWYRQAPGKERQLVAAITSGDGTSYADSVKGRFTISRDNAKNTVYLQMNSLKPEDTAVYYCAAPFVGSVVIRRWDEYDYWGQGTQVTVSS
- polyreactivity (PSR sort gate): low polyreactivity

Sequence: QVQLVESGGGLVQAGGSLRLSCAASGLTLQGYVMGWSRQAPGKDRELVATISYSGGSTRYADSVKGRFTISRDNAKNTVYLQMNSLNPEDTAVYYCNRDSFHYYAERDYWGQGTQVTVSS
- polyreactivity (PSR sort gate): low polyreactivity

Sequence: QVQLVESGGGLVQAGGSLRLSCAASGITFRKYAMGWYRQAPGKERELVAGIRYSGSSTYYADSVKGRFTISRDNAKNTVYLQMNSLTPEDTAVYYCAVYGTTRYATTYDYWGQGTQVTVSS
- polyreactivity (PSR sort gate): high polyreactivity

Sequence: QVHLVESGGGLVQAGGSLRLSCAAYGRSFSSNAMGWYGQAPGKERELVAAISSSGAGTYYADSVKGRFTISRDNAKNTVYLQMNRLKPEDTAVYYCAARANSYHSFTSHYDYWGQGTQVTLSS
- polyreactivity (PSR sort gate): low polyreactivity

Sequence: QVQLVESGGGLVQAGGSLRLSSAASGRTFYRHAMGWYRQAPGKERELVAASTRSGSTNYADSVKGRFTISRDNAKNTVYLQMNSLKPEDTADYYCAAKFFRNTYSYGMDYWGQGTQVTVSS
- polyreactivity (PSR sort gate): high polyreactivity

Sequence: QDQLVESGGGLVQAGGSLRLSCAASGSTFGDYTMGSYRQAPGKEREFVAAITVSVGSTYFADSVKGRFTISRDTAKNTVYLQMNSVKPEDTAFYYCNTDRDPYYHYFDGLYYYWGQGTQVTVSS
- polyreactivity (PSR sort gate): low polyreactivity

Sequence: QVQLVESGGGLVQAGGSLRLSCAASGIIFYPYAMGWYRQAPGKERELVADITSGGGTNYADSVKGRFTISRDNAKNTVYLHMNSLKREDTAVYYWAAEVRGYHWGTYYEFYYWGQGTQVTVSS
- polyreactivity (PSR sort gate): low polyreactivity

Sequence: QVQLEESGRGLVQAGGSLRLSCAASGRTFAYYAMGWYRQAPGKERELVAAITSGGSTNYADSVKGRFTISRDNAKNTVYLQMNSLKPEDTAVYYCNARFRWPWSTYDYWGQGTQVTVSS
- polyreactivity (PSR sort gate): high polyreactivity

Sequence: QVQLVESVGCLVQAGGSLRLSCDASGIIFNQNTMGWYRPAPGKERQLVAAITSSVGSTYYADSVKGRFTISRDNAKNTVYLQMNSLKPEVTAVYYCAATGWVYRRSRDYWGQGTQVTVSS
- polyreactivity (PSR sort gate): low polyreactivity

Sequence: QVQLVESGGGLVQAGGSLRLSCAASGSIFGVNALGWYRQAPGKERELVASITGGDSTNYADSVKGRFTISRDNAKNTVYLQMNSLKPEDTAFYYCAKDHYYRYEEGDYWGQGTQVTVSS
- polyreactivity (PSR sort gate): low polyreactivity

Sequence: QVQLVESGGGLVQAGGSIRLSCAASGITFYRNAMGWYRQAPGKEKELVAAITWNGGRTYYADSVKGRFTISRDNAKNTVYLQMNSLKPEDTAVYYCAAAYPTYRHYYWGQGTQVTVSS
- polyreactivity (PSR sort gate): low polyreactivity

Sequence: QVQLVESGGGIVQAGGSLRLSCAASGGTFRVNAMVWYRQAPGKEREFVAAISGSGSSTYYADSVKGRFTISRDNAKNTVYLQMNSLKPEDTAVYYCAARSGVGGDNDYWGQGTQVTVSS
- polyreactivity (PSR sort gate): low polyreactivity

Sequence: QVQLVESGGGLVQAGGSLRLSCAASGGTFIRYAMGWYRQAPGKEREFVAAISASGGSTYYADSVKGRFTISRDNAKNTVYLQMNSLKPEDTAVYYCAARRTNLPVKFYYWGQGTQVTVSS
- polyreactivity (PSR sort gate): high polyreactivity

Sequence: QLQLVESGGGLVQAGGRLRLSCAASGRTFYDYAMGWYRQSPGKERELVAAIDNGGSTYYADSVKGRFTISRDNAKNTVYLQKNSLKPEDTAVYYCNADGATVWSLEYCGQGTQVTVSS
- polyreactivity (PSR sort gate): low polyreactivity

Sequence: QVQLVESGGGLVQAGGSLRLSCAASGRIFFPYYTMGWYRQAPGKERELVAVISSSGSSTYYADSVKGRFTISRDNAKNTVYLQMNSLKPEDTAVYFCNAYGGVSTRLRGDYWGQGTQVTVSS
- polyreactivity (PSR sort gate): high polyreactivity

Sequence: QVQLVESGGGLVQAGGSLRLSSAASGSTFTGYTMGWYRQATGKERELVASIRTYYADSVKGRFTISRDNAKNTVYLQMNSLKPEDTAVYYCAADFPSATGGYDYWGQGTQVTVSS
- polyreactivity (PSR sort gate): low polyreactivity

Sequence: QVQLVESGGGLVQAGGSLRLSCAASGSTFPEYAMGWYRQAPGKERELVAAISKRGGRTYYADSVKGRFTISRDNAKNTVYLQMNSLKPEETAVYYCARDSYPHGRARFDYWGQGTQVTVSS
- polyreactivity (PSR sort gate): high polyreactivity

Sequence: QVQLVESGGGLVQAGGSLRLSCAASARTFPWYAMGLYRQAPGKERELVAAISWTGGSTYYADSVKGRFTISRDNAKHTVYLQMNSLKPEDTAVYYCAASPWYLKYEYWGQGTQVTVSS
- polyreactivity (PSR sort gate): low polyreactivity

Sequence: QVQLVESGGGLVQAGGSLRLSCAASGSTFRYNAMGWYRQAPGKERELVAAINWSGSSTYYADSVKGRVTISRDNAKNTVYLQMNRLKPEDTAVNYCAAERPWYTKWGEYWGQGTQVTVSS
- polyreactivity (PSR sort gate): high polyreactivity

Sequence: QVHLVESGGGLVQAGGSLRLSCAASGYTDYAMGWYRKAPGKERELVATITSGDNTNYADSVKGRFTSSRDNAKNTVYLQMNSLKAEDTAVYYCAAVYGLHYGIDYWGQGTQVNVSS
- polyreactivity (PSR sort gate): low polyreactivity

Sequence: HVQLVESGGGLVQAGGSLRLSCAASGSIFDTYAMGWYRQAPGKERELVAAINFSDGDTYYADSVKGRFTSSRDNSKNTVYLQLNSLKPEDTAVYDCAAEVWDPPEYYDEYDYWGQGTQVTVSS
- polyreactivity (PSR sort gate): low polyreactivity

Sequence: QVQLVESGGGLVQAGGSLRLSCAASGRIFGYYAMGWYRQAPGKERELVATIRGGGSTNYADSVKGRCTISRDNAKNTVFLQMNSLKPEDTAVYYCAKPCAKWRGFDYWGQGTQVTVSS
- polyreactivity (PSR sort gate): low polyreactivity

Sequence: QVQLVESGGGVVQAGGSLRLSCAASGLTFKFYAMGWYIQAPGKERELVAAINRSGSSTYYADSVKGRFTISRDNAKNTVYLQMNSLKPEDTAVYYCAKDSFTSTRQYDYWGQGTQVTVSS
- polyreactivity (PSR sort gate): low polyreactivity

Sequence: QVQLVESGGGLVQAGGSLRLSCAASGRTLGKYVMGWYRQAPGKERELVAAISVRGGTTYYADSVKGRFTISRDNAKYTVYLQMNSLKPEDTAVYYGNKAYYVWYGWGQGTQVTVSS
- polyreactivity (PSR sort gate): high polyreactivity

Sequence: QVQLVESGGGLVQAGGSLRLSCAASGIIFFRNAMGWYRQAPGKERELVAAIRWSGGSSYYADSVKGRYTISRDNAKNTVYLQINSLKPEDTAVYYCNAVTVYKHGSWGQGTQVTVSS
- polyreactivity (PSR sort gate): high polyreactivity

Sequence: QVQLVESGGGLVQAGGSLRLSCAASGRTFGYYAMGWYRQAPGKERELVAAISSRGGSTYYADSVKGRFTISRDNAKNTVYLQMNSLKPEDTAVYYCNTRWTNIHPRYDYWGQGTQVTVSS
- polyreactivity (PSR sort gate): high polyreactivity

Sequence: KVQLVESCGGLVQAGGSLRLSCAASGFIISNYAMGWYRQAPGKERELVASISWGGGSTYYADSVKGSFTISRDNAKNTVYLQMNSLKPEDTAVYYCAAPSWDGIAYYGGYDYLGQGTQVTVSS
- polyreactivity (PSR sort gate): high polyreactivity

Sequence: QVQLVESGGGLVQAGGSLRLSCAASGITFGTYTMGWYRQAPGKERELVAAISRSGTGTYYADSVKGRFTISRDNAKNTVYLQMNSLKPEDTAVYYCAAAGYIYYGYEYLYGFEYWGQGTQVTVSS
- polyreactivity (PSR sort gate): high polyreactivity

Sequence: QVQLVESGGGLVQAGGSLRLSCAASGRTFYSYAMGGYRQAPGKERELVARITWSGGTYYADSVKGRFTISRDNAKNTVYLQMNSLKPEDTAVYYCAAKYWKWYHYGFGYWGQGTQVTVSS
- polyreactivity (PSR sort gate): high polyreactivity
